This is an account of results in article PMC6939996 (Nature, 2019).

B1: Snu71 (in the purified U1 snRNP of the Ubc4 E complex) (natural protein, S. cerevisiae, UniProt P53207 1-620, looked up)
chain: MRDIVFVSPQLYLSSQEGWKSDSAKSGFIPILKNDLQRFQDSLKHIVDARNSLSETLLNSNDDGSIHNSDQNTGLNKDKEASIADNNSANKCATSSSRYQELKQFLPISLDQQIHTVSLQGVSSSFSRGQIESLLDHCLNLALTETQSNSALKVEAWSSFSSFLDTQDIFIRFSKVDEDEAFVNTLNYCKALFAFIRKLHEDFKIELHLDLNTKEYVEDRTGTIPSVKPEKASEFYSVFKNIEDQTDERNSKKEQLDDSSTQYKVDTNTLSDLPSDALDQLCKDIIEFRTKVVSIEKEKKMKSTYEESRRQRHQMQKVFDQIRKNHSGAKGSANTEEEDTNMEDEDEEDDTEDDLALEKRKEERDLEESNRRYEDMLHQLHSNTEPKIKSIRADIMSAENYEEHLEKNRSLYLKELLHLANDVHYDHHRSFKEQEERRDEEDRAKNGNAKELAPIQLSDGKAISAGKAAAITLPEGTVKSENYNADKNVSESSEHVKIKFDFKKAIDHSVESSSEDEGYRESELPPTKPSERSAAEDRLPFTADELNIRLTNLKESRYVDELVREFLGVYEDELVEYILENIRVNQSKQALLNELRETFDEDGETIADRLWSRKEFRLGT
B2: Prp40 (in the purified U1 snRNP of the Ubc4 E complex) (natural protein)
chain: MSIWKEAKDASGRIYYYNTLTKKSTWEKPKELISQEELLLRENGWKAAKTADGKVYYYNPTTRETSWTIPAFEKKVEPIAEQKHDTVSHAQVNGNRIALTAGEKQEPGRTINEEESQYANNSKLLNVRRRTKEEAEKEFITMLKENQVDSTWSFSRIISELGTRDPRYWMVDDDPLWKKEMFEKYLSNRSADQLLKEHNETSKFKEAFQKMLQNNSHIKYYTRWPTAKRLIADEPIYKHSVVNEKTKRQTFQDYIDTLIDTQKESKKKLKTQALKELREYLNGIITTSSSETFITWQQLLNHYVFDKSKRYMANRHFKVLTHEDVLNEYLKIVNTIENDLQNKLNELRLRNYTRDRIARDNFKSLLREVPIKIKANTRWSDIYPHIKSDPRFLHMLGRNGSSCLDLFLDFVDEQRMYIFAQRSIAQQTLIDQNFEWNDADSDEITKQNIEKVLENDRKFDKVDKEDISLIVDGLIKQRNEKIQQKLQNERRILEQKKHYFWLLLQRTYTKTGKPKPSTWDLASKELGESLEYKALGDEDNIRRQIFEDFKPESSAPTAESATANLTLTASKKRHLTPAVELDY

Holding throughout (experiment): cross-linking
For one experiment, the target named is T1, BBP/Mud2 dimer (S. cerevisiae, UniProt Q12186 1-476; P36084 1-527).
T1 sequence (looked up) 1: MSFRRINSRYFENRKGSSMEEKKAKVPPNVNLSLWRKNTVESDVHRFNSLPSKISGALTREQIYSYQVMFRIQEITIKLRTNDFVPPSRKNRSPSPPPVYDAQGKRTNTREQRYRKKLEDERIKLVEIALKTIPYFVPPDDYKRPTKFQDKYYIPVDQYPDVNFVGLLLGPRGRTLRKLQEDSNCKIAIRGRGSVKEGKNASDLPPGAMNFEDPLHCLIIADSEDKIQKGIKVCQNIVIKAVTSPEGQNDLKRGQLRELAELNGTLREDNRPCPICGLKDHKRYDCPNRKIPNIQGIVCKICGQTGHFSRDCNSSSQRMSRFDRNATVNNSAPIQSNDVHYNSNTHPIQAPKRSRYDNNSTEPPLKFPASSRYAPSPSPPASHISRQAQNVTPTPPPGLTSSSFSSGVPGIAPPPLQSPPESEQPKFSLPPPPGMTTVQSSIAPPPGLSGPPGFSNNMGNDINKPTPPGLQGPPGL
T1 sequence (looked up) 2: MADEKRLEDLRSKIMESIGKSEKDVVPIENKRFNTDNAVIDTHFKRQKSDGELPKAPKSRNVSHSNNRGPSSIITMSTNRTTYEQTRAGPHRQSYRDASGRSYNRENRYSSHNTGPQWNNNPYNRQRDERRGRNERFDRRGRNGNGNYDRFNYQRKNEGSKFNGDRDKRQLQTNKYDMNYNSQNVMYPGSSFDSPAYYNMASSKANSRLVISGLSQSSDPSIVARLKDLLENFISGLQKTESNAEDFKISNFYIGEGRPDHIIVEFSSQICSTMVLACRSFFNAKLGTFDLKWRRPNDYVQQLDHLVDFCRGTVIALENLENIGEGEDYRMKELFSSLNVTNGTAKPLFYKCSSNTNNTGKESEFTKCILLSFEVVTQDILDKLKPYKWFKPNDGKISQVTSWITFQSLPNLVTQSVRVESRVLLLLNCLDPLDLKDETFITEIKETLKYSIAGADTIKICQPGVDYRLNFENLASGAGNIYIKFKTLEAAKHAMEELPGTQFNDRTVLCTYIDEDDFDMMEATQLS

Experiment [1] has as its target B1.
Experiment [2] has as its target B2.

With B1, in the experiment with BBP/Mud2 dimer, the binding result is on record as “binds”.
Consider B2, for which the binding result (in the experiment with BBP/Mud2 dimer; in experiment [1]) was “binds” in each case.

B3: U1-70K (in the purified U1 snRNP of the Ubc4 E complex) (natural protein, S. cerevisiae)
chain: MNYNLSKYPDDVSRLFKPRPPLSYKRPTDYPYAKRQTNPNITGVANLLSTSLKHYMEEFPEGSPNNHLQRYEDIKLSKIKNAQLLDRRLQNWNPNVDPHIKDTDPYRTIFIGRLPYDLDEIELQKYFVKFGEIEKIRIVKDKITQKSKGYAFIVFKDPISSKMAFKEIGVHRGIQIKDRICIVDIERGRTVKYFKPRRLGGGLGGRGYSNRDSRLPGRFASASTSNPAERNYAPRLPRRETSSSAYSADRYGSSTLDARYRGNRPLLSAATPTAAVTSVYKSRNSRTRESQPAPKEAPDY
With B3, the binding result in experiment [2] is listed as “binds”.

B4: Snu56 (in the purified U1 snRNP of the Ubc4 E complex) (natural protein, S. cerevisiae)
chain: MRPRRRGLAYHHTKPKGQLSQGHYPTTSNDGQRRKVGNSEAFQSFDIWKNLDRIRSTKKNAGQFIKGSLLILPMRTEDKQQFDECMDELHKYISKDILRCYPQKEQKDEGMLFYIVLKDFNILDSCFVLSVLLAFQKRLWMAPSEKSYFRVPKNINLTGSFYLPKNIETGRGHIITSYRREQPSSSIVEVGFNVVPDFQQFQVKACHVSKFMNELSNFFSQVEFGKCEANVINYFKREYNRTYSQISLALYELPLIGDGLFDIKSYISKTRPIIETSKAQMIKHISEMKAYNEISGLQGDQFPRQQRPLSNSPSSNSISSSQTIEAGATSYQTQPQRHAVNKPSNVLNSSNRHSGPKTFEDGRYSEGNKPGFMTQDEIKQHCIGTIKASMDAVKKKSSYQILKTYVRCPRQNYIDIVYQNLNDLRSKTNCNIVVLNLNNLHESQMWLESLNTTNYTIFAQAPHPSTIRVISIGGVGEYIVKALELILNILEH
As to B4, the binding result with BBP/Mud2 dimer is given as “binds”.

B5: Luc7 (in the purified U1 snRNP of the Ubc4 E complex) (natural protein, S. cerevisiae)
chain: MSTMSTPAAEQRKLVEQLMGRDFSFRHNRYSHQKRDLGLHDPKICKSYLVGECPYDLFQGTKQSLGKCPQMHLTKHKIQYEREVKQGKTFPEFEREYLAILSRFVNECNGQISVALQNLKHTAEERMKIQQVTEELDVLDVRIGLMGQEIDSLIRADEVSMGMLQSVKLQELISKRKEVAKRVRNITENVGQSAQQKLQVCEVCGAYLSRLDTDRRLADHFLGKIHLGYVKMREDYDRLMKNNRTTNASKTATTLPGRRFV
In the case of B5, the binding result (in the experiment with BBP/Mud2 dimer; in experiment [2]) was “binds” each time.
